As usually defined, the Kd is the equilibrium constant for the complex coming apart. Read a high Kd as lower affinity.

This test concerns the target His-tagged Pasteurella lipoprotein E (PlpE) of P. multocida (Pasteurella multocida). The test is described as follows: BLI. A general note: Biolayer interferometry detects binding as a change in optical thickness at a sensor tip.

B1: ABCF2 used as analyte in bio-layer interferometry (natural protein)
chain: MPSDLAKKKAAKKKEAAKARQRPRKGHEENGDVVTEPQVAEKNEANGRETTEVDLLTKELEDFEMKKAAARAVTGVLASHPNSTDVHIINLSLTFHGQELLSDTKLELNSGRRYGLIGLNGIGKSMLLSAIGKREVPIPEHIDIYHLTREMPPSDKTPLHCVMEVDTERAMLEKEAERLAHEDAECEKLMELYERLEELDADKAEMRASRILHGLGFTPAMQRKKLKDFSGGWRMRVALARALFIRPFMLLLDEPTNHLDLDACVWLEEELKTFKRILVLVSHSQDFLNGVCTNIIHMHNKKLKYYTGNYDQYVKTRLELEENQMKRFHWEQDQIAHMKNYIARFGHGSAKLARQAQSKEKTLQKMMASGLTERVVSDKTLSFYFPPCGKIPPPVIMVQNVSFKYTKDGPCIYNNLEFGIDLDTRVALVGPNGAGKSTLLKLLTGELLPTDGMIRKHSHVKIGRYHQHLQEQLDLDLSPLEYMMKCYPEIKEKEEMRKIIGRYGLTGKQQVSPIRNLSDGQKCRVCLAWLAWQNPHMLFLDEPTNHLDIETIDALADAINEFEGGMMLVSHDFRLIQQVAQEIWVCEKQTITKWPGDILAYKEHLKSKLVDEEPQLTKRTHNV
Turning to B1, the equilibrium dissociation constant (Kd) was found to be 970 nM.

The values are drawn from paper PMC13529201.
